Assay results: the supplement of paper PMC12338614
± gives the uncertainty stated by the source.

B1: library; numbered along this chain (parent)
chain: MEVVDPQQLGMFTEGELMSVGMDTFIHRIDSTEVIYQPRRKRAKLIGKYLMGDLLGEGSYGKVKEVLDSETLCRRAVKILKKKKLRRIPNGEANVKKEIQLLRRLRHKNVIQLVDVLYNEEKQKMYMVMEYCVCGMQEMLDSVPEKRFPVCQAHGYFCQLIDGLEYLHSQGIVHKDIKPGNLLLTTGGTLKISDLGVAEALHPFAADDTCRTSQGSPAFQPPEIANGLDTFSGFKVDIWSAGVTLYNITTGLYPFEGDNIYKLFENIGKGSYAIPGDCGPPLSDLLKGMLEYEPAKRFSIRQIRQHSWFRKKHPPAEAPVPIPPSPDTKDRWRSMTVVPYLEDLHGADEDEDLFDIEDDIIYTQDFTVPGQVPEEEASHNGQRRGLPKAVCMNGTEAAQLSTKSRAEGRAPNPARKACSASSKIRRLSACKQQ

Variants of: B1
Experiment: STK11 functional score (HeLa growth suppression), rescaled enrichment; synonymous median = 1, nonsense median = 0 (normalised score)
Conditions: with HeLa; variant type: missense
Outline: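 Functional scores are post/pre-selection log ratios corrected to wild type, rescaled to synonymous and nonsense medians, merged over codons and replicate transfections, and given bootstrapped error. They come from POPCode libraries of codon-optimised STK11 integrated by Bxb1 at an AAVS1 landing pad in HeLa, three regions each transfected three times, with BFP-negative, mCherry-positive integrants sorted by FACS and tiled gDNA amplicons sequenced on NextSeq.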

MEVVDPQQLGMFTEGELMSVGMDTFIHRIDSTEVIYQPRRKRAKLIGKYLMGDLLGEGSYGKVKEVLDSETLCRRAVKILKKKKLRRIPNGEANVKKEIQLLRRLRHKNVIQLVDVLYNEEKQKMYMVMEYCVCGMQEMLDSVPEKRFPVCQAHGYFCQLIDGLEYLHSQGIVHKDIKPGNLLLTTGGTLKISDLGVAEALHPFAADDTCRTSQGSPAFQPPEIANGLDTFSGFKVDIWSAGVTLYNITTGLYPFEGDNIYKLFENIGKGSYAIPGDCGPPLSDLLKGMLEYEPAKRFSIRQIRQISWFRKKHPPAEAPVPIPPSPDTKDRWRSMTVVPYLEDLHGADEDEDLFDIEDDIIYTQDFTVPGQVPEEEASHNGQRRGLPKAVCMNGTEAAQLSTKSRAEGRAPNPARKACSASSKIRRLSACKQQ [H306I] and MEVVDPQQLGMFTEGELMSVGMDTFIHRIDSTEVIYQPRRKRAKLIGKYLMGDLLGEGSYGKVKEVLDSETLCRRAVKILKKKKLRRIPNGEANVKKEIQLLRRLRHKNVIQLVDVLYNEEKQKMYMVMEYCVCGMQEMLDSVPEKRFPVCQAHGYFCQLIDGLEYLHSQGIVHKDIKPGNLLLTTGGTLKISDLRVAEALHPFAADDTCRTSQGSPAFQPPEIANGLDTFSGFKVDIWSAGVTLYNITTGLYPFEGDNIYKLFENIGKGSYAIPGDCGPPLSDLLKGMLEYEPAKRFSIRQIRQHSWFRKKHPPAEAPVPIPPSPDTKDRWRSMTVVPYLEDLHGADEDEDLFDIEDDIIYTQDFTVPGQVPEEEASHNGQRRGLPKAVCMNGTEAAQLSTKSRAEGRAPNPARKACSASSKIRRLSACKQQ [G196R] are within error of each other in STK11 functional score: 0.83 ± 0.16 for the first, -0.0503 ± 0.77 for the second.

MEVVDPQQLGMFTEGELMSVGMDTFIHRIDSTEVIYQPRRKRAKLIGKYLMGDLLGEGSYGKVKEVLDSETLCRRAVKILKKKKLRRIPNGEANVKKEIQLLRRLRHKNVIQLVDVLYNEEKQKMYMVMEYCVCGMQEMLDSVPEKRFPVCQAHGYFCQLIDGLEYLHSQGIVHKDIKPGNLLLTTGGTLKISDLGVAEALHPFAADDTCRTSQGSPAFQPPEIANGLDTFSGFKVDIWSAGVTLYNITTGLYPFEGDNIYKLFENIGKGSYAIPGDCGPPLSDLLKGMLEYEPAKRFSIRQIRQHSWFRKKHPPAEAPVVIPPSPDTKDRWRSMTVVPYLEDLHGADEDEDLFDIEDDIIYTQDFTVPGQVPEEEASHNGQRRGLPKAVCMNGTEAAQLSTKSRAEGRAPNPARKACSASSKIRRLSACKQQ [P321V] and MEVVDPQQLGMFTEGELMSVGMDTFIHRIDSTEVIYQPRRKRAKLIGKYLMGDLLGEGSYGKVKEVLDSETLCRRAVKILKKKKLRRIPNGEANVKKEIQLLRRLRHKNVIQLVDVLYNEEKQKMYMVMEYCVCGMQEMLDSVPEKRFPVCQAHGYFCQLIDGLEYLHSQGIVHKDIKPGNLLLTTGGTLKISDLGVAEALHPFAADDTCRTSQGSPAFQPPEIANGLDTFSGFKVDIWSAGVTLYNITTGLYPFEGDNIYKLFENIGKGSYAIPGDCGPPLSDLLKGMLEYEPAKRFSIRQIRQHSWFRKKHPPAEAPVNIPPSPDTKDRWRSMTVVPYLEDLHGADEDEDLFDIEDDIIYTQDFTVPGQVPEEEASHNGQRRGLPKAVCMNGTEAAQLSTKSRAEGRAPNPARKACSASSKIRRLSACKQQ [P321N] are within error of each other in STK11 functional score: 1.41 ± 0.28 for the first, 1.03 ± 0.51 for the second.

MEVVDPQQLGMFTEGELMSVGMDTFIHRIDSTEVIYQPRRKRAKLIGKYLMGDLLGEGSYGKVKEVLDSETLCRRAVKILKKKKLRRIPNGEWNVKKEIQLLRRLRHKNVIQLVDVLYNEEKQKMYMVMEYCVCGMQEMLDSVPEKRFPVCQAHGYFCQLIDGLEYLHSQGIVHKDIKPGNLLLTTGGTLKISDLGVAEALHPFAADDTCRTSQGSPAFQPPEIANGLDTFSGFKVDIWSAGVTLYNITTGLYPFEGDNIYKLFENIGKGSYAIPGDCGPPLSDLLKGMLEYEPAKRFSIRQIRQHSWFRKKHPPAEAPVPIPPSPDTKDRWRSMTVVPYLEDLHGADEDEDLFDIEDDIIYTQDFTVPGQVPEEEASHNGQRRGLPKAVCMNGTEAAQLSTKSRAEGRAPNPARKACSASSKIRRLSACKQQ [A93W] and MEVVDPQQLGMFTEGELMSVGMDTFIHRIDSTEVIYQPRRKRAKLIGKYLMGDLLGEGSYGKVKEVLDSETLCRRAVKILKKKKLRRIPNGEANVKKEIQLLRRLRHKNVIQLVDVLYNEEKQKMYMVMEYCVCGMQEMLDSVPEKRFPVCQAHGYFCQLIDGLEYLHSQGIVHKDIKPGNLLLTTGGTLKISDLGVAEALHPFAADDTCRTSQGSPAFQPPEIANGLDTFSGFKVDIWSAGVTLYNITTGLYPFEGDNIYKLFEAIGKGSYAIPGDCGPPLSDLLKGMLEYEPAKRFSIRQIRQHSWFRKKHPPAEAPVPIPPSPDTKDRWRSMTVVPYLEDLHGADEDEDLFDIEDDIIYTQDFTVPGQVPEEEASHNGQRRGLPKAVCMNGTEAAQLSTKSRAEGRAPNPARKACSASSKIRRLSACKQQ [N266A] are within error of each other in STK11 functional score: 1.63 ± 0.1 for the first, 1.45 ± 0.15 for the second.

With MEVVDPQQLGMFTEGELMSVGMDTFIHRIDSTEVIYQPRRKRAKLIGKYLMGDLLGEGSYGKVKEVLDSETLCRRAVKILKKKKLRRIPNGEANVKCEIQLLRRLRHKNVIQLVDVLYNEEKQKMYMVMEYCVCGMQEMLDSVPEKRFPVCQAHGYFCQLIDGLEYLHSQGIVHKDIKPGNLLLTTGGTLKISDLGVAEALHPFAADDTCRTSQGSPAFQPPEIANGLDTFSGFKVDIWSAGVTLYNITTGLYPFEGDNIYKLFENIGKGSYAIPGDCGPPLSDLLKGMLEYEPAKRFSIRQIRQHSWFRKKHPPAEAPVPIPPSPDTKDRWRSMTVVPYLEDLHGADEDEDLFDIEDDIIYTQDFTVPGQVPEEEASHNGQRRGLPKAVCMNGTEAAQLSTKSRAEGRAPNPARKACSASSKIRRLSACKQQ [K97C] the STK11 functional score was 0.937 ± 0.18.
